Laboratory results reported in article PMC7972864, “Fucoxanthin Prevents 6-OHDA-Induced Neurotoxicity by Targeting Keap1” (Oxidative Medicine and Cellular Longevity, 2021).

Target: human Keap1 protein (human), Q14145
Test: BLI
Settings: natural protein; chains chain; biotinylated (site not stated); remark: other sources report otherwise

Sequence of human Keap1 protein (human), Q14145 (Q14145 whole entry): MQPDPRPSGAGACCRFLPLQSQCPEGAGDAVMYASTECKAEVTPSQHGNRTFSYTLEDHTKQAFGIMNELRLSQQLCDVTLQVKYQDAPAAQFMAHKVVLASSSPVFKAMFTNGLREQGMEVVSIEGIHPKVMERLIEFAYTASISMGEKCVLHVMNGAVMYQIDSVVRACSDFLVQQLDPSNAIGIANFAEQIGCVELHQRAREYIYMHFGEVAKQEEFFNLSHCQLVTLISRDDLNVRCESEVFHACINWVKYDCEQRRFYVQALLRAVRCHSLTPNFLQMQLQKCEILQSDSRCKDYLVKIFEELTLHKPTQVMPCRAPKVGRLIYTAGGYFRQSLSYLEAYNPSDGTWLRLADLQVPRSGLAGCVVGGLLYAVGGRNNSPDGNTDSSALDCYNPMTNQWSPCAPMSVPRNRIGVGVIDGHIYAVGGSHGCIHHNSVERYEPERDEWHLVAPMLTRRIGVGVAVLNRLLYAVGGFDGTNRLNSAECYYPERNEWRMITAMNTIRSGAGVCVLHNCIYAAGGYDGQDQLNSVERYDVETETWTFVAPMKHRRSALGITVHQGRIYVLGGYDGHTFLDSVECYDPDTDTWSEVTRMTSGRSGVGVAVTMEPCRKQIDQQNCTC

B1: human Nrf2 protein, Q16236 1-605 (protein)
chain: MMDLELPPPGLPSQQDMDLIDILWRQDIDLGVSREVFDFSQRRKEYELEKQKKLEKERQEQLQKEQEKAFFAQLQLDEETGEFLPIQPAQHIQSETSGSANYSQVAHIPKSDALYFDDCMQLLAQTFPFVDDNEVSSATFQSLVPDIPGHIESPVFIATNQAQSPETSVAQVAPVDLDGMQQDIEQVWEELLSIPELQCLNIENDKLVETTMVPSPEAKLTEVDNYHFYSSIPSMEKEVGNCSPHFLNAFEDSFSSILSTEDPNQLTVNSLNSDATVNTDFGDEFYSAFIAEPSISNSMPSPATLSHSLSELLNGPIDVSDLSLCKAFNQNHPESTAEFNDSDSGISLNTSPSVASPEHSVESSSYGDTLLGLSDSEVEELDSAPGSVKQNGPKTPVHSSGDMVQPLSPSQGQSTHVHDAQCENTPEKELPVSPGHRKTPFTKDKHSSRLEAHLTRDELRAKALHIPFPVEKIINLPVVDFNEMMSKEQFNEAQLALIRDIRRRGKNKVAAQNCRKRKLENIVELEQDLDHLKDEKEKLLKEKGENDKSLHLLKKQLSTLYLEVFSMLRDEDGKPYSPSEYSLQQTRDGNVFLVPKSKKPDVKKN
With B1 the Kd was 12.6 nM.
